Publication PMC11228480 (Proceedings of the National Academy of Sciences of the …, 2024)
One block for each binder: values may come before it.

Legend:
[1] = target: T1, ryanodine receptor type 1 (RyR1), endogenous, purified from mouse skeletal muscle (mouse, UniProt E9PZQ0 1-5035); experiment: pull-down
[2] = target: T1, ryanodine receptor type 1 (RyR1), …; experiment: cryo-EM structure
cryo-EM structure = target: the molecule itself; experiment: cryo-EM structure

T1 sequence (E9PZQ0 whole entry): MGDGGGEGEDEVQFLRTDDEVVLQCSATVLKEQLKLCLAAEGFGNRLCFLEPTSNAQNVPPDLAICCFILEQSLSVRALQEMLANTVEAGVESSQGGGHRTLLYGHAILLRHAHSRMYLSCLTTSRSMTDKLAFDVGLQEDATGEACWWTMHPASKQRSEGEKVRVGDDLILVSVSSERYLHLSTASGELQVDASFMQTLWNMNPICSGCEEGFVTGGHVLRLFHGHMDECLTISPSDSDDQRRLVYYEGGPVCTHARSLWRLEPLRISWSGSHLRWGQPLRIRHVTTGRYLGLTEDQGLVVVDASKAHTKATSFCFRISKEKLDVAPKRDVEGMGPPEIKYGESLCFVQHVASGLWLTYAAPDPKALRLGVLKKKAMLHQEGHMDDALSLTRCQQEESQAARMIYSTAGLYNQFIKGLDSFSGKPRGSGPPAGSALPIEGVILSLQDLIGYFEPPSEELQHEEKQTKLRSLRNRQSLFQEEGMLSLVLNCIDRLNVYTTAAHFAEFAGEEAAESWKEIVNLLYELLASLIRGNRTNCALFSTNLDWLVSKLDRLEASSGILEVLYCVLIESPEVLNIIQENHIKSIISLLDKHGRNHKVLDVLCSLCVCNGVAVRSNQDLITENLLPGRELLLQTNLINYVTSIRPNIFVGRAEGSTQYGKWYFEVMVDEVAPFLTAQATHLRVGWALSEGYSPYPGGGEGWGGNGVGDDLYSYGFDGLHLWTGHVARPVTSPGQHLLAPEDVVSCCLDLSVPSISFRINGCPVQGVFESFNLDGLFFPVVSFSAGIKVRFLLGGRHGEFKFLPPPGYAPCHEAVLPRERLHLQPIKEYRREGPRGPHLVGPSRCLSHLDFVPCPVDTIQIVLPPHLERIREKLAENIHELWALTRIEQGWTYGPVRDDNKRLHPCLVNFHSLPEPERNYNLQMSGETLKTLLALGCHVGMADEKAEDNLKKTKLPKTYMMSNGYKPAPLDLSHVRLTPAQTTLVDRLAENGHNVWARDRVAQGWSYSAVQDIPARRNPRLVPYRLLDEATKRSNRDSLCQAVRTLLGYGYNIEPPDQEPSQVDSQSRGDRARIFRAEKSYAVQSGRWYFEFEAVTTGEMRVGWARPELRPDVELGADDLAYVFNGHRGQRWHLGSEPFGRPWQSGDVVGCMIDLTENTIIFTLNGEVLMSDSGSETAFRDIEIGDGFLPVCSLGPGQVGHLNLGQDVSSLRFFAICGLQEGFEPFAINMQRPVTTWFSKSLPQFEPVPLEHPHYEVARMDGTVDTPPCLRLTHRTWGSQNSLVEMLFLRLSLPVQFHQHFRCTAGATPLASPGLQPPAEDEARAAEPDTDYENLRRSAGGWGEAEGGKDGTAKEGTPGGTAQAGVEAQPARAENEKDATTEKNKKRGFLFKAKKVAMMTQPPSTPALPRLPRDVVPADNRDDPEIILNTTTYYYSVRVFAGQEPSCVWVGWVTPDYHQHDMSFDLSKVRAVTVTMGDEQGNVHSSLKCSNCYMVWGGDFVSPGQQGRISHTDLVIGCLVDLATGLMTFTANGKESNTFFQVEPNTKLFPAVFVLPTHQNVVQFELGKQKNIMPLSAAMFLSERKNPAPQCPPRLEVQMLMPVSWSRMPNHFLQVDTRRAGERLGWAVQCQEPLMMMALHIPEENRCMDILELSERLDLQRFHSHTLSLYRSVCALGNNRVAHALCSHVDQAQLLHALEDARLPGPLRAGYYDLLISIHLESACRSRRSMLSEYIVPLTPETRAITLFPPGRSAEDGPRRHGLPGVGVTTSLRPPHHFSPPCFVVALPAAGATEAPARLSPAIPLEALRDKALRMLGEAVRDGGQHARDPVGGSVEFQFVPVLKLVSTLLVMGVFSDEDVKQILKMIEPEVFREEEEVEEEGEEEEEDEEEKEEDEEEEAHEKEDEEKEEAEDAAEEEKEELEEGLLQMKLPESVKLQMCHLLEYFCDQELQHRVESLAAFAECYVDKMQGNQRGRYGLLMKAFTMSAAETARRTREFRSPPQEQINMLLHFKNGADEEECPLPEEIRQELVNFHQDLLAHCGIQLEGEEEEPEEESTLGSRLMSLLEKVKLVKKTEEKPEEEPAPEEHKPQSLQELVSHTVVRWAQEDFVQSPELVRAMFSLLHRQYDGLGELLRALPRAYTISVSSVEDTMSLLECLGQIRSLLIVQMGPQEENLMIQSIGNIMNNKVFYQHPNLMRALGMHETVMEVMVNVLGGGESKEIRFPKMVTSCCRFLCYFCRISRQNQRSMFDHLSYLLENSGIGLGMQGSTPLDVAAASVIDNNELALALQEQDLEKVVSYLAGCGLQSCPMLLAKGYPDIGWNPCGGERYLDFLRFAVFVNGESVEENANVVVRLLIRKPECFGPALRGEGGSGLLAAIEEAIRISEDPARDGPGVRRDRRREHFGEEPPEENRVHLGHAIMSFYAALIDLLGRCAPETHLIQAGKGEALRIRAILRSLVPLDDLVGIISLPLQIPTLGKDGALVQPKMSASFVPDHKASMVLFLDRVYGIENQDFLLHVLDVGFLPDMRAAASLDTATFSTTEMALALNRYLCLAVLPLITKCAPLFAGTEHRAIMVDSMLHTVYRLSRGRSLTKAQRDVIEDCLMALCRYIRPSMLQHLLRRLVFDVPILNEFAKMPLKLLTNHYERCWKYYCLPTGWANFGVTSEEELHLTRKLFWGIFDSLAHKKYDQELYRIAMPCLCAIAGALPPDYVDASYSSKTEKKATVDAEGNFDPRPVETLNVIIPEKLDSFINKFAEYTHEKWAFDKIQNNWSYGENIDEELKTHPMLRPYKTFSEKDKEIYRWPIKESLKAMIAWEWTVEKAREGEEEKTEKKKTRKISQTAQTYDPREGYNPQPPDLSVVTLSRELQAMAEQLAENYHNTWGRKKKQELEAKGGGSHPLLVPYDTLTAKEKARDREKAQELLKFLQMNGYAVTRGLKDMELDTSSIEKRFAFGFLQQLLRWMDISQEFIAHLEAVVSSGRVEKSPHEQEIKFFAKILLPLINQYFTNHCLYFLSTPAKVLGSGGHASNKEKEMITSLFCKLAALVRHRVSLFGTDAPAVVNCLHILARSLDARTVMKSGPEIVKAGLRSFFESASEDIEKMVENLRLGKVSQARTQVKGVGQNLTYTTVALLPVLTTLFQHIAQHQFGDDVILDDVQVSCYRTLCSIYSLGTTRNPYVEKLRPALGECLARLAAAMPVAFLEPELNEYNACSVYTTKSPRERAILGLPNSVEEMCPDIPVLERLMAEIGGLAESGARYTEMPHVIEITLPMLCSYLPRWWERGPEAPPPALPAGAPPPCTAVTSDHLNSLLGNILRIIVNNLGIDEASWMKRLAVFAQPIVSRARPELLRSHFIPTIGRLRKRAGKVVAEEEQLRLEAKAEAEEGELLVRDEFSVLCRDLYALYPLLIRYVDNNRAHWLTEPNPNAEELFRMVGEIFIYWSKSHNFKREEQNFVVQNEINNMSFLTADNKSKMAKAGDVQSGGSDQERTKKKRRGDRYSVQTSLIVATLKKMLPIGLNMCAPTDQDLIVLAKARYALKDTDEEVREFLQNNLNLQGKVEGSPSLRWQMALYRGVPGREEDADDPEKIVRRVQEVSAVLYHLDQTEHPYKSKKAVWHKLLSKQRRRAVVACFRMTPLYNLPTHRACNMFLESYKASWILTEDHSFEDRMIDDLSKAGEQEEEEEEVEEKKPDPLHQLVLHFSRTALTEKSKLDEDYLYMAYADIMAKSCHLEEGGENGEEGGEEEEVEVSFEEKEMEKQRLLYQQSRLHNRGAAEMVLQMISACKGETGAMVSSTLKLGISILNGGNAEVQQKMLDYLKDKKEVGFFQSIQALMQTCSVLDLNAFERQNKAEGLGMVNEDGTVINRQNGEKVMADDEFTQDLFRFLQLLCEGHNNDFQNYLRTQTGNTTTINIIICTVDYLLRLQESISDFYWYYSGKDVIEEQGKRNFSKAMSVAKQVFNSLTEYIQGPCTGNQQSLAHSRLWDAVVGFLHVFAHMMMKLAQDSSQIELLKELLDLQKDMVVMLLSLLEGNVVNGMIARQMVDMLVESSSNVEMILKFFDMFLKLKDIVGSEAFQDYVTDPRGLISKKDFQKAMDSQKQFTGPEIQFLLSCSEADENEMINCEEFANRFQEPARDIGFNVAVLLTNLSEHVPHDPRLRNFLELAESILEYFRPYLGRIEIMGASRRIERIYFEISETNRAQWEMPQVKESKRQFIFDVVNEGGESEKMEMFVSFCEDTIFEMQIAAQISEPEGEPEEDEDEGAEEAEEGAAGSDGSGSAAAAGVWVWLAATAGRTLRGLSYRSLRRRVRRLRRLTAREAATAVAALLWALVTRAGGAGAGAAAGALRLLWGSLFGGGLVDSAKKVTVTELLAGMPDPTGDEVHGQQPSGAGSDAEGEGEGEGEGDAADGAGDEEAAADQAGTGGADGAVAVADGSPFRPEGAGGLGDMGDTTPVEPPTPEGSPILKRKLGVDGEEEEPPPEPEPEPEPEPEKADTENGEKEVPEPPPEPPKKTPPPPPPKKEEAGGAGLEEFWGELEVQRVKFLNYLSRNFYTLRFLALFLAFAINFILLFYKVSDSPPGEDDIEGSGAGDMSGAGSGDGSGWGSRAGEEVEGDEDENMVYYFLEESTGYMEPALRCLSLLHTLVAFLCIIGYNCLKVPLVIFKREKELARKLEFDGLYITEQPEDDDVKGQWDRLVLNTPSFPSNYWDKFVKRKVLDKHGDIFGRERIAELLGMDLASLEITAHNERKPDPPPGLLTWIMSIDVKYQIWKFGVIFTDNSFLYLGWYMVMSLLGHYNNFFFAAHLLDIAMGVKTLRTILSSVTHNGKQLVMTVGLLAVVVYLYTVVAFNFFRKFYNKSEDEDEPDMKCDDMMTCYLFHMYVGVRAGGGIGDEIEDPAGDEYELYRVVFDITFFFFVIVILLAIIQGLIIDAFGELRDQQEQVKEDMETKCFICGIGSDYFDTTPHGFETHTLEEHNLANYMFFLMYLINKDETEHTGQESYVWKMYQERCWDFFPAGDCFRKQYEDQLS

binding result [1]: binds
B1: GST-tagged S100A1 (natural protein)
chain: MGSELESAMETLINVFHAHSGQEGDKYKLSKKELKDLLQTELSGFLDVQKDADAVDKVMKELDENGDGEVDFKEYVVLVAALTVACNNFFWETS

binding result [2]: binds
B2: recombinant mouse S100A1 (untagged) (natural protein)
chain: B1 chain
stoichiometry N (cryo-EM structure): 2
